The text below walks through data of the RNAGym collection of RNA variant scans (doi:10.7554/elife.80360).

B1: Hairpin Ribozyme (parent)
chain: GUCCUCUUUCACGUGCGCGUGAAAGAGAGAAGUGAACCAGAGAAACACACGUUGUGGUAUAUUACCUGGUA

Variants of B1 are the subject of the data set. Description: self-cleavage, relative activity (ratio to wild type); higher = more cleavage; co-transcriptional.
For the variant C6U U20C, the self-cleavage was determined as 0.806.
As for C4A A30C, the figure is 0.0814; as for C37A C38A, 0.144; as for G29A U52G, 0.0639.
As for G17U A71G, the figure is 1.1.
With U14G U70C the figure was 1.13; with A36C U52G, 0.558; with U14A U55C, 0.206.
For the variant U14A U55A, the self-cleavage was 0.201.
For the variant C6U A35U, the self-cleavage was 0.765.
As for G13A A23C, the figure is 0.571.
On to U5A A61C, for which the self-cleavage worked out at 0.088.
As for G25A G54U, the figure is 0.392.
With U2C A49U, the self-cleavage was 0.141.
With C6G G57U, the self-cleavage stood at 0.238.
As for C10G U14A, the figure is 0.635; as for G27A A59G, 0.191.
As for U7C C50G, the figure is 0.229; as for G51C C65U, 0.296; as for U53A C66A, 0.205.
As for C18G U67G, the figure is 0.275; as for C3A U8G, 0.541.
As to C6U G25U, the self-cleavage amounted to 0.762.
U2C A24G: the self-cleavage came to 0.154.
Consider A30C U52C, for which the self-cleavage amounted to 0.133.
For the variant G1A G29U, the self-cleavage worked out at 0.157.
With G1U U2C the figure was 0.232.
As for G25U U63A, the figure is 0.184.
As for G51U G54C, the figure is 0.135; as for G17C G34U, 1.42.
Turning to G25C U67C, the self-cleavage amounted to 0.134.
As for G27U C48A, the figure is 0.0902; as for A11U U55A, 0.154.
With G1A U60C the figure was 0.248.
As for C38A G56A, the figure is 0.178; as for C48G G69C, 0.0597.
With U14G C66A, the self-cleavage was determined as 0.0772.
As for G29A A47C, the figure is 0.107.
As for A31C A64U, the figure is 0.11.
For the variant U5C U7G, the self-cleavage is 0.365.
With A23C A49C the figure was 0.136; with G17A G42C, 0.367; with A39C G68C, 0.191.
On to A11C A71C, for which the self-cleavage was 1.15.
With A11C A71U the figure was 0.747; with A47G U52C, 0.124.
With G57U U62A, the self-cleavage was found to be 0.0927.
With A39C U70G the figure was 0.232.
For G27U U53C, the self-cleavage is 0.398.
As for A43C C66U, the figure is 0.181; as for A39G C48G, 0.0932; as for U14G G25C, 0.312.
With G15U G56U the figure was 0.0866.
With U9G U60A the figure was 0.645.
For A64C C66G, the self-cleavage came to 0.084.
As for C16A A22C, the figure is 0.713; as for A23C A41C, 0.948.
As for A44U A49C, the self-cleavage is 0.0643.
As for U20G A28U, the figure is 0.643; as for A23U C38U, 0.312; as for G68U U70C, 0.201.
With A59G G69C the figure was 0.161; with A47U G69U, 0.138.
In the case of G27U G57C, the self-cleavage was determined as 0.159.
Consider C4U U53G, for which the self-cleavage amounted to 0.412.
As for G17U G21U, the figure is 0.53.
With C37A A71G the figure was 0.323.
With A23G A59G the figure was 0.184.
Consider G15U G19U, for which the self-cleavage stood at 0.853.
With U9G C48U, the self-cleavage is 0.158.
As for A47U A64G, the figure is 0.0969; as for G34C G42U, 1.19; as for A41C G57C, 0.226.
With C38A G54U the figure was 0.135; with A11G G69U, 0.215; with U5A U62G, 0.11.
As for G17U A22U, the self-cleavage came to 0.793.
With G17C U58C the figure was 0.825; with A24G A41U, 1.05; with C65G A71U, 0.219.
With C65G A71G the figure was 0.187; with C16G A59U, 0.145.
For the variant G1C G19C, the self-cleavage was 0.0663.
As for U52C U63C, the figure is 0.226; as for U52C U63A, 0.206.
With A47U C66U, the self-cleavage was found to be 0.228.
With A24G G32A the figure was 0.14.
With A22G U58G the figure was 0.528; with A39U U62A, 0.126.
With U33G G34C the figure was 0.337; with G13A C48G, 0.118; with G68U G69C, 0.136.
In the case of U9C U70C, the self-cleavage is 0.492.
With U20A A30G the figure was 0.184; with A26G U53A, 0.814; with G1C U8G, 0.216.
With U2C U9A the figure was 0.109.
As for G13A A44G, the figure is 0.125; as for G32U A49U, 0.0712.
As to U5G A26G, the self-cleavage was 0.286.
With G17U C46G the figure was 0.192; with U9G C66G, 0.172; with U14A A35U, 0.656.
Take G15C C16U: the self-cleavage was determined as 1.29.
With C16A A61G the figure was 0.203.
As for G32C A64U, the figure is 0.159.
As for U52A U62A, the figure is 0.24; as for G1A C37A, 0.0752.
With C3G G29A, the self-cleavage was determined as 0.148.
With C18A G56A the figure was 0.158; with U9C A28G, 1.33; with U7A G29A, 0.099.
With C12G G40A the figure was 0.266; with C16G C18G, 0.863.
As for G1C G40A, the figure is 0.0839.
Consider U20A C38A, for which the self-cleavage came out at 0.168.
With A22G A23C the figure was 0.915.
With G32C G34C the figure was 0.101; with C10U G17U, 0.665.
With A43U C66A the figure was 0.0293; with A24C U62C, 0.297.
Take U33G: the self-cleavage came out at 0.127.
As for U33A, the figure is 0.147; as for A11U C46G, 0.0538.
With G32U G57C the figure was 0.129; with G15A A59U, 0.213; with G34A C46U, 0.135.
With G57A U60A the figure was 0.152.
For the variant U14C G27A, the self-cleavage worked out at 0.423.
As for C37G G40C, the figure is 0.13; as for A39U A61U, 0.125; as for C3A U62A, 0.184.
On to G1A G51U, for which the self-cleavage was found to be 0.274.
Turning to G57C U60A, the self-cleavage was found to be 0.14.
As for G27A G29C, the figure is 0.12.
With G32C C66A the figure was 0.0957.
As for A31C C46U, the figure is 0.187.
Turning to A11G C18G, the self-cleavage turned out to be 0.816.
As for A49U U63C, the figure is 0.172; as for C18G G57A, 0.118; as for A36C C65U, 0.118.
With C4A U70C the figure was 0.119.
On to G1U A45G, for which the self-cleavage was determined as 0.0992.
As for U8G G19U, the figure is 0.332; as for G21A A31U, 0.0982.
As for U60C U70C, the figure is 1.28.
As for U5G, the figure is 0.324; as for C37G C50A, 0.14; as for G54C U55G, 0.25.
For the variant A35G U58C, the self-cleavage was found to be 1.11.
For the variant U20A A24C, the self-cleavage came to 0.81.
With A26C A59C the figure was 0.0674.
With C12U A49C the figure was 0.169; with C16U C50G, 0.339.
With U55A A61C the figure was 0.104; with G27A U70A, 0.426; with C38G, 0.181.
Take G32A C46G: the self-cleavage was 0.103.
For the variant A35U G40A, the self-cleavage amounted to 0.154.
As for A47C A49G, the figure is 0.308; as for G56C U70G, 0.0624; as for A24U G68U, 0.22.
With C10G A39C the figure was 0.357; with G21A A43U, 0.123; with U14C G56U, 0.126.
With G56U G68C the figure was 0.157; with C12G G56U, 0.124.
